How the values were obtained:
Conditions in all cases: tags: C-terminal His6 (pET-22b, E. coli); label: Cy5
CebR (SCAB57761) [1] = target: T1, CebR (SCAB57761) (Streptomyces scabies 87-22); test: EMSA; strong binding, positive control; excess nonspecific salmon sperm DNA; same buffer; inhibited by cellobiose
T1 chain: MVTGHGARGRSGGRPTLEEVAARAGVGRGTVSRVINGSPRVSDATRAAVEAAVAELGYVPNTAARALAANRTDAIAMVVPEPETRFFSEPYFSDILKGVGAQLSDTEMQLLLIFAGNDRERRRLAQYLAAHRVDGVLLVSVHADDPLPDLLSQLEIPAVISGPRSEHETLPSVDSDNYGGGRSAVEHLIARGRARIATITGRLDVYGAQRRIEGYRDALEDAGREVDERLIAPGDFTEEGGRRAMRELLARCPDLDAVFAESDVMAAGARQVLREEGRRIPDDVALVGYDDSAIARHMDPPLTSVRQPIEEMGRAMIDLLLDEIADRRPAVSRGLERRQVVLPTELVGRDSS

CebR (SCAB57761) [2] = target: T1, CebR (SCAB57761); test: EMSA; strong binding with 20-fold excess nonspecific salmon sperm DNA; same buffer; inhibited by cellobiose
CebR (SCAB57761) [3] = target: T1, CebR (SCAB57761); test: EMSA; strong binding with 20-fold excess nonspecific salmon sperm DNA; 0.08-3.2 uM CebR; pH 7.5, 0.25 mM CaCl2, 0.5 mM MgCl2, 50 mM KCl, room temperature; inhibited by cellobiose

B1: cbs cebR-E probe (dsDNA)
DNA 1: CCAGGTACTGTGGGAGCGCTCCCACGAGTGATGT
DNA 2: ACATCACTCGTGGGAGCGCTCCCACAGTACCTGG
B1: binds (CebR (SCAB57761) [1]).

B2: cbs bglC probe (dsDNA)
DNA 1: GGTTCAGGCATGGAAGCGCTCCCATTGGTGGTCG
DNA 2: CGACCACCAATGGGAGCGCTTCCATGCCTGAACC
B2: binds (CebR (SCAB57761) [1]).

B3: cbs txtB probe (dsDNA)
DNA 1: CTCCCCCAGGGGGAGCGCTCCCACTGCGCTGTA
DNA 2: TACAGCGCAGTGGGAGCGCTCCCCCTGGGGGAG
B3: binds (CebR (SCAB57761) [2]).

B4: cbs txtR-A probe (dsDNA)
DNA 1: TGTCAATAAGCGGGAGCGCTCCCACAGCGCTCTC
DNA 2: GAGAGCGCTGTGGGAGCGCTCCCGCTTATTGACA
B4: binds (CebR (SCAB57761) [3]).

Reference: patent publication US20170306368, “METHODS FOR THAXTOMIN PRODUCTION AND MODIFIED STREPTOMYCES WITH INCREASED THAXTOMIN PRODUCTION” (University of Florida Research Foundation, Inc., published 2017)
